Laboratory results published in the supplement of paper PMC10266784.

B1: library; numbered along this chain (parent)
chain: MAAAAAAAAEQQSSNGPVKKSMREKAVERRSVNKEHNSNFKAGYIPIDEDRLHKTGLRGRKGNLAICVIILLFILAVINLIITLVIWAVIRIGPNGCDSMEFHESGLLRFKQVSDMGVIHPLYKSTVGGRRNENLVITGNNQPIVFQQGTTKLSVENNKTSITSDIGMQFFDPRTQNILFSTDYETHEFHLPSGVKSLNVQKASTERITSNATSDLNIKVDGRAIVRGNEGVFIMGKTIEFHMGGNMELKAENSIILNGSVMVSTTRLPSSSSGDQLGSGDWVRYKLCMCADGTLFKVQVTSQNMGCQISDNPCGNTH

Variants of: B1
Assay: SGCB cell-surface expression functional score (HA stain, bin4 vs bin1, normalised to synonymous) (log10 ratio); higher = more cell-surface SGCB (functional)
Outline: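 Sorting and sequencing yield the functional score, defined as the log ratio of a variant's highest-bin frequency to its lowest-bin frequency, with the median taken over codons and replicate transductions. The libraries, codon-saturation sets of HA-tagged, YFP-fused human beta-sarcoglycan, went into HEK293 cells stably carrying alpha-, gamma- and delta-sarcoglycan by duplicate lentiviral transduction at MOI <0.1. Cells were stained on ice with Alexa Fluor 647 anti-HA, fixed and split into four 5% intensity bins, and synonymous variants were scaled per section to mean 0, SD 0.5.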
For MAAAAAAAAEQQSSNGPVKKSMREKAVERRSVNKEHNSNFKAGYIPIDEDRLHKTGLRGRKGNLAICVIILLFILAVINLIITLVIWAVIRIGPNGCDSMEFHESGLLRFKQVSDMGVIHPLYKSTVGGRRNENLVITGNNQPIVFQQGTTKLSVENNKTSITSDIGMQFFDPRTQNILFSTDYETHEFHLPSGVKSLNVQKASTERFTSNATSDLNIKVDGRAIVRGNEGVFIMGKTIEFHMGGNMELKAENSIILNGSVMVSTTRLPSSSSGDQLGSGDWVRYKLCMCADGTLFKVQVTSQNMGCQISDNPCGNTH [I208F], the “SGCB cell-surface expression functional score (log10)” value was -0.61. With MAAAAAAAAEQQSSNGPVKKSMREKAVERRSVNKEHNSNFKAGYIPIDEDRLHKTGLRGRKGNLAICVIILLFILAVINLIITLVIWAVIRIGPNGCDSMEFHESGLLRFKQVSDMGVIHPLYKSTVGGRRNENLVITGNNQPIVFQQGTTKLSVENNKTSITSDIGMQFFDPRTQNILFSTDYETHEFHLPSGVKSLNVQKASTERRTSNATSDLNIKVDGRAIVRGNEGVFIMGKTIEFHMGGNMELKAENSIILNGSVMVSTTRLPSSSSGDQLGSGDWVRYKLCMCADGTLFKVQVTSQNMGCQISDNPCGNTH [I208R] the “SGCB cell-surface expression functional score (log10)” value was -1.44. In the case of MAAAAAAAAEQQSSNGPVKKSMREKAVERRSVNKEHNSNFKAGYIPIDEDRLHKTGLRGRKGNLAICVIILLFILAVINLIITLVIWAVIRIGPNGCDSMEFHESGLLRFKQVSDMGVIHPLYKSTVGGRRNENLVITGNNQPIVFQQGTTKLSVENNKTSITSDIGMQFFDPRTQNILFSTDYETHEFHLPSGVKSLNVQKASTERYTSNATSDLNIKVDGRAIVRGNEGVFIMGKTIEFHMGGNMELKAENSIILNGSVMVSTTRLPSSSSGDQLGSGDWVRYKLCMCADGTLFKVQVTSQNMGCQISDNPCGNTH [I208Y], the “SGCB cell-surface expression functional score (log10)” value is reported as -2.38. With MAAAAAAAAEQQSSNGPVKKSMREKAVERRSVNKEHNSNFKAGYIPIDEDRLHKTGLRGRKGNLAICVIILLFILAVINLIITLVIWAVIRIGPNGCDSMEFHESGLLRFKQVSDMGVIHPLYKSTVGGRRNENLVITGNNQPIVFQQGTTKLSVENNKTSITSDIGMQFFDPRTQNILFSTDYETHEFHLPSGVKSLNVQKASTERHTSNATSDLNIKVDGRAIVRGNEGVFIMGKTIEFHMGGNMELKAENSIILNGSVMVSTTRLPSSSSGDQLGSGDWVRYKLCMCADGTLFKVQVTSQNMGCQISDNPCGNTH [I208H] the “SGCB cell-surface expression functional score (log10)” value was -1.66. With MAAAAAAAAEQQSSNGPVKKSMREKAVERRSVNKEHNSNFKAGYIPIDEDRLHKTGLRGRKGNLAICVIILLFILAVINLIITLVIWAVIRIGPNGCDSMEFHESGLLRFKQVSDMGVIHPLYKSTVGGRRNENLVITGNNQPIVFQQGTTKLSVENNKTSITSDIGMQFFDPRTQNILFSTDYETHEFHLPSGVKSLNVQKASTERLTSNATSDLNIKVDGRAIVRGNEGVFIMGKTIEFHMGGNMELKAENSIILNGSVMVSTTRLPSSSSGDQLGSGDWVRYKLCMCADGTLFKVQVTSQNMGCQISDNPCGNTH [I208L] the “SGCB cell-surface expression functional score (log10)” value was 0.3. For MAAAAAAAAEQQSSNGPVKKSMREKAVERRSVNKEHNSNFKAGYIPIDEDRLHKTGLRGRKGNLAICVIILLFILAVINLIITLVIWAVIRIGPNGCDSMEFHESGLLRFKQVSDMGVIHPLYKSTVGGRRNENLVITGNNQPIVFQQGTTKLSVENNKTSITSDIGMQFFDPRTQNILFSTDYETHEFHLPSGVKSLNVQKASTERKTSNATSDLNIKVDGRAIVRGNEGVFIMGKTIEFHMGGNMELKAENSIILNGSVMVSTTRLPSSSSGDQLGSGDWVRYKLCMCADGTLFKVQVTSQNMGCQISDNPCGNTH [I208K], the “SGCB cell-surface expression functional score (log10)” value was -1.11. For MAAAAAAAAEQQSSNGPVKKSMREKAVERRSVNKEHNSNFKAGYIPIDEDRLHKTGLRGRKGNLAICVIILLFILAVINLIITLVIWAVIRIGPNGCDSMEFHESGLLRFKQVSDMGVIHPLYKSTVGGRRNENLVITGNNQPIVFQQGTTKLSVENNKTSITSDIGMQFFDPRTQNILFSTDYETHEFHLPSGVKSLNVQKASTERMTSNATSDLNIKVDGRAIVRGNEGVFIMGKTIEFHMGGNMELKAENSIILNGSVMVSTTRLPSSSSGDQLGSGDWVRYKLCMCADGTLFKVQVTSQNMGCQISDNPCGNTH [I208M], the “SGCB cell-surface expression functional score (log10)” value was -0.33. For MAAAAAAAAEQQSSNGPVKKSMREKAVERRSVNKEHNSNFKAGYIPIDEDRLHKTGLRGRKGNLAICVIILLFILAVINLIITLVIWAVIRIGPNGCDSMEFHESGLLRFKQVSDMGVIHPLYKSTVGGRRNENLVITGNNQPIVFQQGTTKLSVENNKTSITSDIGMQFFDPRTQNILFSTDYETHEFHLPSGVKSLNVQKASTERPTSNATSDLNIKVDGRAIVRGNEGVFIMGKTIEFHMGGNMELKAENSIILNGSVMVSTTRLPSSSSGDQLGSGDWVRYKLCMCADGTLFKVQVTSQNMGCQISDNPCGNTH [I208P], the “SGCB cell-surface expression functional score (log10)” value was -1.33. In the case of MAAAAAAAAEQQSSNGPVKKSMREKAVERRSVNKEHNSNFKAGYIPIDEDRLHKTGLRGRKGNLAICVIILLFILAVINLIITLVIWAVIRIGPNGCDSMEFHESGLLRFKQVSDMGVIHPLYKSTVGGRRNENLVITGNNQPIVFQQGTTKLSVENNKTSITSDIGMQFFDPRTQNILFSTDYETHEFHLPSGVKSLNVQKASTERVTSNATSDLNIKVDGRAIVRGNEGVFIMGKTIEFHMGGNMELKAENSIILNGSVMVSTTRLPSSSSGDQLGSGDWVRYKLCMCADGTLFKVQVTSQNMGCQISDNPCGNTH [I208V], the “SGCB cell-surface expression functional score (log10)” value is reported as 0.49. For MAAAAAAAAEQQSSNGPVKKSMREKAVERRSVNKEHNSNFKAGYIPIDEDRLHKTGLRGRKGNLAICVIILLFILAVINLIITLVIWAVIRIGPNGCDSMEFHESGLLRFKQVSDMGVIHPLYKSTVGGRRNENLVITGNNQPIVFQQGTTKLSVENNKTSITSDIGMQFFDPRTQNILFSTDYETHEFHLPSGVKSLNVQKASTERWTSNATSDLNIKVDGRAIVRGNEGVFIMGKTIEFHMGGNMELKAENSIILNGSVMVSTTRLPSSSSGDQLGSGDWVRYKLCMCADGTLFKVQVTSQNMGCQISDNPCGNTH [I208W], the “SGCB cell-surface expression functional score (log10)” value was -1.04. With MAAAAAAAAEQQSSNGPVKKSMREKAVERRSVNKEHNSNFKAGYIPIDEDRLHKTGLRGRKGNLAICVIILLFILAVINLIITLVIWAVIRIGPNGCDSMEFHESGLLRFKQVSDMGVIHPLYKSTVGGRRNENLVITGNNQPIVFQQGTTKLSVENNKTSITSDIGMQFFDPRTQNILFSTDYETHEFHLPSGVKSLNVQKASTERGTSNATSDLNIKVDGRAIVRGNEGVFIMGKTIEFHMGGNMELKAENSIILNGSVMVSTTRLPSSSSGDQLGSGDWVRYKLCMCADGTLFKVQVTSQNMGCQISDNPCGNTH [I208G] the “SGCB cell-surface expression functional score (log10)” value was -1.48. For MAAAAAAAAEQQSSNGPVKKSMREKAVERRSVNKEHNSNFKAGYIPIDEDRLHKTGLRGRKGNLAICVIILLFILAVINLIITLVIWAVIRIGPNGCDSMEFHESGLLRFKQVSDMGVIHPLYKSTVGGRRNENLVITGNNQPIVFQQGTTKLSVENNKTSITSDIGMQFFDPRTQNILFSTDYETHEFHLPSGVKSLNVQKASTERNTSNATSDLNIKVDGRAIVRGNEGVFIMGKTIEFHMGGNMELKAENSIILNGSVMVSTTRLPSSSSGDQLGSGDWVRYKLCMCADGTLFKVQVTSQNMGCQISDNPCGNTH [I208N], the “SGCB cell-surface expression functional score (log10)” value was -1.22. For MAAAAAAAAEQQSSNGPVKKSMREKAVERRSVNKEHNSNFKAGYIPIDEDRLHKTGLRGRKGNLAICVIILLFILAVINLIITLVIWAVIRIGPNGCDSMEFHESGLLRFKQVSDMGVIHPLYKSTVGGRRNENLVITGNNQPIVFQQGTTKLSVENNKTSITSDIGMQFFDPRTQNILFSTDYETHEFHLPSGVKSLNVQKASTERSTSNATSDLNIKVDGRAIVRGNEGVFIMGKTIEFHMGGNMELKAENSIILNGSVMVSTTRLPSSSSGDQLGSGDWVRYKLCMCADGTLFKVQVTSQNMGCQISDNPCGNTH [I208S], the “SGCB cell-surface expression functional score (log10)” value was -1.11. In the case of MAAAAAAAAEQQSSNGPVKKSMREKAVERRSVNKEHNSNFKAGYIPIDEDRLHKTGLRGRKGNLAICVIILLFILAVINLIITLVIWAVIRIGPNGCDSMEFHESGLLRFKQVSDMGVIHPLYKSTVGGRRNENLVITGNNQPIVFQQGTTKLSVENNKTSITSDIGMQFFDPRTQNILFSTDYETHEFHLPSGVKSLNVQKASTERTTSNATSDLNIKVDGRAIVRGNEGVFIMGKTIEFHMGGNMELKAENSIILNGSVMVSTTRLPSSSSGDQLGSGDWVRYKLCMCADGTLFKVQVTSQNMGCQISDNPCGNTH [I208T], the “SGCB cell-surface expression functional score (log10)” value is reported as -1.57. With MAAAAAAAAEQQSSNGPVKKSMREKAVERRSVNKEHNSNFKAGYIPIDEDRLHKTGLRGRKGNLAICVIILLFILAVINLIITLVIWAVIRIGPNGCDSMEFHESGLLRFKQVSDMGVIHPLYKSTVGGRRNENLVITGNNQPIVFQQGTTKLSVENNKTSITSDIGMQFFDPRTQNILFSTDYETHEFHLPSGVKSLNVQKASTERQTSNATSDLNIKVDGRAIVRGNEGVFIMGKTIEFHMGGNMELKAENSIILNGSVMVSTTRLPSSSSGDQLGSGDWVRYKLCMCADGTLFKVQVTSQNMGCQISDNPCGNTH [I208Q] the “SGCB cell-surface expression functional score (log10)” value was -1.96. For MAAAAAAAAEQQSSNGPVKKSMREKAVERRSVNKEHNSNFKAGYIPIDEDRLHKTGLRGRKGNLAICVIILLFILAVINLIITLVIWAVIRIGPNGCDSMEFHESGLLRFKQVSDMGVIHPLYKSTVGGRRNENLVITGNNQPIVFQQGTTKLSVENNKTSITSDIGMQFFDPRTQNILFSTDYETHEFHLPSGVKSLNVQKASTERETSNATSDLNIKVDGRAIVRGNEGVFIMGKTIEFHMGGNMELKAENSIILNGSVMVSTTRLPSSSSGDQLGSGDWVRYKLCMCADGTLFKVQVTSQNMGCQISDNPCGNTH [I208E], the “SGCB cell-surface expression functional score (log10)” value was -2.83. With MAAAAAAAAEQQSSNGPVKKSMREKAVERRSVNKEHNSNFKAGYIPIDEDRLHKTGLRGRKGNLAICVIILLFILAVINLIITLVIWAVIRIGPNGCDSMEFHESGLLRFKQVSDMGVIHPLYKSTVGGRRNENLVITGNNQPIVFQQGTTKLSVENNKTSITSDIGMQFFDPRTQNILFSTDYETHEFHLPSGVKSLNVQKASTERICSNATSDLNIKVDGRAIVRGNEGVFIMGKTIEFHMGGNMELKAENSIILNGSVMVSTTRLPSSSSGDQLGSGDWVRYKLCMCADGTLFKVQVTSQNMGCQISDNPCGNTH [T209C] the “SGCB cell-surface expression functional score (log10)” value was -1.07. With MAAAAAAAAEQQSSNGPVKKSMREKAVERRSVNKEHNSNFKAGYIPIDEDRLHKTGLRGRKGNLAICVIILLFILAVINLIITLVIWAVIRIGPNGCDSMEFHESGLLRFKQVSDMGVIHPLYKSTVGGRRNENLVITGNNQPIVFQQGTTKLSVENNKTSITSDIGMQFFDPRTQNILFSTDYETHEFHLPSGVKSLNVQKASTERIASNATSDLNIKVDGRAIVRGNEGVFIMGKTIEFHMGGNMELKAENSIILNGSVMVSTTRLPSSSSGDQLGSGDWVRYKLCMCADGTLFKVQVTSQNMGCQISDNPCGNTH [T209A] the “SGCB cell-surface expression functional score (log10)” value was -0.04. For MAAAAAAAAEQQSSNGPVKKSMREKAVERRSVNKEHNSNFKAGYIPIDEDRLHKTGLRGRKGNLAICVIILLFILAVINLIITLVIWAVIRIGPNGCDSMEFHESGLLRFKQVSDMGVIHPLYKSTVGGRRNENLVITGNNQPIVFQQGTTKLSVENNKTSITSDIGMQFFDPRTQNILFSTDYETHEFHLPSGVKSLNVQKASTERIDSNATSDLNIKVDGRAIVRGNEGVFIMGKTIEFHMGGNMELKAENSIILNGSVMVSTTRLPSSSSGDQLGSGDWVRYKLCMCADGTLFKVQVTSQNMGCQISDNPCGNTH [T209D], the “SGCB cell-surface expression functional score (log10)” value was -1.17.
